Results taken from patent US20240239875A1 (published 2024).
Like-named read-outs stand apart in the source and are kept apart here.

T1: MERS spike protein (MERS-CoV, UniProt K9N5Q8 18-1296)
T1 chain: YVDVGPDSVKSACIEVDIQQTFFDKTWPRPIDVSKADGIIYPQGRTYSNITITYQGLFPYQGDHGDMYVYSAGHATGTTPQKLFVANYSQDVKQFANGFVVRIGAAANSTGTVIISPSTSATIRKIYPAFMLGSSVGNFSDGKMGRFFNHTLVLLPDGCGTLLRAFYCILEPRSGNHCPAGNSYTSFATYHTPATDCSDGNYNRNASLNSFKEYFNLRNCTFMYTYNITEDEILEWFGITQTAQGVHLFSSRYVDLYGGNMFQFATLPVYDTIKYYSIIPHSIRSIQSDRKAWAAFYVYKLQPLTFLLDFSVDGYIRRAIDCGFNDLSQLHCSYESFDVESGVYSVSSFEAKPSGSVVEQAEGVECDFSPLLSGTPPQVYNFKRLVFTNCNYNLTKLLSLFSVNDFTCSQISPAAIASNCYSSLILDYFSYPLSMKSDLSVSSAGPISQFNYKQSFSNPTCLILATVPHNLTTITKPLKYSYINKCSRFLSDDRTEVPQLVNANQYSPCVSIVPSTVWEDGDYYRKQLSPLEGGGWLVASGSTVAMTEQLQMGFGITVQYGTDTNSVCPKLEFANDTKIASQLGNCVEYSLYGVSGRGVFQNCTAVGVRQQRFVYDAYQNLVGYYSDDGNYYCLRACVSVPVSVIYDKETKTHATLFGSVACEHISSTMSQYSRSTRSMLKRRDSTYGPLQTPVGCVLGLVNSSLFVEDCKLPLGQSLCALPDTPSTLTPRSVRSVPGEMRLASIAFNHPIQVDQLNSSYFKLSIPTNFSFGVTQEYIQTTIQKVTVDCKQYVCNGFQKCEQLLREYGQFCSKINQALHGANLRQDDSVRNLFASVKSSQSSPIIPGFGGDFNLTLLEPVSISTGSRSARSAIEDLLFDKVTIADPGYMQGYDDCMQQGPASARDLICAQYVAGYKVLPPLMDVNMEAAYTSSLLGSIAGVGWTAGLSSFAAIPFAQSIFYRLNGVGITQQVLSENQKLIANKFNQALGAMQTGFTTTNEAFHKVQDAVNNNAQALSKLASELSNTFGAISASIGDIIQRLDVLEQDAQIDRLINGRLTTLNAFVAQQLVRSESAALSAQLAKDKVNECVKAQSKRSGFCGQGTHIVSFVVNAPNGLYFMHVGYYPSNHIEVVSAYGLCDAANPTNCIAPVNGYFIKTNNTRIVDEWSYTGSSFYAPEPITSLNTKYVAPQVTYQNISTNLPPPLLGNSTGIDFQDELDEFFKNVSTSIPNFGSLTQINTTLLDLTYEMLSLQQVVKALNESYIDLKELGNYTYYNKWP

T2: HKU1 spike protein (HCoV-HKU1)
T2 chain: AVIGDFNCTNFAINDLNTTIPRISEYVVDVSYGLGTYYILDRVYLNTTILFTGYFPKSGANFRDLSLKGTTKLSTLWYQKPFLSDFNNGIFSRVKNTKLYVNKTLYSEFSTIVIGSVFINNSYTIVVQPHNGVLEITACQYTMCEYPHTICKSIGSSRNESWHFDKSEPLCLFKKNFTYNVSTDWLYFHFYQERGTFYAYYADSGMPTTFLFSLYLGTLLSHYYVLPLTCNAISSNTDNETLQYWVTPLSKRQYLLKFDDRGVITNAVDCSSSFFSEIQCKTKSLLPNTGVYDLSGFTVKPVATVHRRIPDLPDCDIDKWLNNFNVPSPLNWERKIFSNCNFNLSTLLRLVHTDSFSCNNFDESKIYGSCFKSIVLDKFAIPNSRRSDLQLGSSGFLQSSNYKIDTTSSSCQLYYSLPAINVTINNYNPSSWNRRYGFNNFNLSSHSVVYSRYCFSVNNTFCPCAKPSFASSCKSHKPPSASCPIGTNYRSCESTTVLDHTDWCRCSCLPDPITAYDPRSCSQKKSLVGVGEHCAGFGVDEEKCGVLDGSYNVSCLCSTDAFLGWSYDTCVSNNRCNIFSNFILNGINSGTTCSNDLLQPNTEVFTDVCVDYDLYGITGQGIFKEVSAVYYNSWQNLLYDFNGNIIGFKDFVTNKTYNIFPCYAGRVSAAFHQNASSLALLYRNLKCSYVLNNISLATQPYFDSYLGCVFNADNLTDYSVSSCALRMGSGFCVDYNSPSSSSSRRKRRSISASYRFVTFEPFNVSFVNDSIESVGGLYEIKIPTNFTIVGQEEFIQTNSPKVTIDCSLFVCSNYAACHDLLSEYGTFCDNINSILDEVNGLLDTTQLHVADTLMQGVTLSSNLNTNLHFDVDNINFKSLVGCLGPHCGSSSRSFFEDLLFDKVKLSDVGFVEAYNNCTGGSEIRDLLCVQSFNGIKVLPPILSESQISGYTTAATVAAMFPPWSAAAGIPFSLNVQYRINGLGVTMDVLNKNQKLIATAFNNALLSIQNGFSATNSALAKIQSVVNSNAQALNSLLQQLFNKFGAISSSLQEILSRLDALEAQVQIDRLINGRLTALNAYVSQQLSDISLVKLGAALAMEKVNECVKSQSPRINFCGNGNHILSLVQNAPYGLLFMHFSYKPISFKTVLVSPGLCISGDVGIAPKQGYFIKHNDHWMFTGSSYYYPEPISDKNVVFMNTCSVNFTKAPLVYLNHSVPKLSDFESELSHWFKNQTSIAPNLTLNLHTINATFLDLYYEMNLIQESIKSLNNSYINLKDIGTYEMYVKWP

B1: 2-J9-A (antibody, V domains shown)
VH: EVQLQQSGPELVKPGASVKMSCKASGYTFTDYNIHWVKQSHGKSLEWIGYINPNNGGTDYNQKFQGKATLTVNKSSSTAYMELRSLTSEDSAVYYCARGGFYGNYGAYYGMDFWGQGTSVTVSS
VL: DIQMTQSPASLSASVGETVTITCRTSENIYSHLAWYQQTQGKSPQLLVYNTKTLAEGVPSRFTGSGSGTQFSLKINSLQPEDFGSYYCQHHYGIPPEFGGGTKLEIK
B2: 2-P2-A (antibody, V domains shown)
VH: EVQLQQSGAELVRPGSSVKMSCKTSGYTFTSYGINWVKQRPGQGLEWIGYIYIGNGYTEYNEKFKGKATLTSDTSSSTAYMQLSSLTSEDSAIYFCARGGVDYWGQGTTLTVSS
VL: DVLMTQTPLSLPVSLGDQASISCRSSQSIVHSNGNTYLEWYLQKPGQSPKLLIYKVSNRFSGVPDRFSGSGSGTDFTLKISRVEAEDLGVYYCFQGSHVPYTFGGGTKLEIK
B3: 10-B11-A (antibody, V domains shown)
VH: QVQLQQPGAELVKPGASVKVSCKASGYTFTSYWMHWVKQRPGQGLEWIGRIHPSDSDTNYYQKFKGKATLSVDKSSSTAYMQLSSLTSEDSAVYYCAIPLYSYDNSGGYYPMDYWGQGTSVTVSS
VL: DIVMTQSQKFMSTSVGDRVTITCKASQNVRTAVAWYQQKPGQSPKKLIYLASNRHTGVPDRFTGSGSGTDFTLAISNVQSEDLADYFCLQHWNYPFTFGSGTRLEIK
B4: 4-N22-A (antibody, V domains shown)
VH: QVQLQQPGTELVKPGASVKLSCKASGYTFTNYWMYWVKQRPGQGLDWIGNINPSNGGTNYNEKFKSKATLTVDKSSSTAYMQLSSLTSEDSAVYYCARETGNYWGQGTTLTVSS
VL: DILMTQSPSSMSVSLGDTVSISCHASQGISSNIGWLQQKPGKSFKGLIYHGTNLEDGVPSRFSGSGSGADYSLTISSLESEDFADYYCVQYAQFPYTFGGGTKLEIK

Assays:
Experiment in all cases: ELISA
SARS-CoV-2 S2 domain = SARS-CoV-2 S2 domain (UniProt P0DTC2 686-1213)
MERS spike protein = target: T1, MERS spike protein
[1] = target: T3, SARS-CoV-2 prefusion stabilized trimer protein (WIV02 isolate spike protein) (UniProt P0DTC2 14-1213)
SARS-CoV-1 spike protein = SARS-CoV-1 spike protein (SARS-CoV-1, UniProt P59594 14-1195)
[2] = target: T3, SARS-CoV-2 prefusion stabilized trimer …; remark: listed apart in the source
[3] = target: SARS-CoV-2 receptor binding domain (UniProt P0DTC2 319-541)
HKU1 spike protein = target: T2, HKU1 spike protein

Binder | EC50 (SARS-CoV-2 S2 domain) [pM] | EC50 (MERS spike protein) [pM] | EC50 [1] [pM] | EC50 (SARS-CoV-1 spike protein) [pM] | EC50 [2] [pM] | EC50 [3] [pM] | EC50 (HKU1 spike protein) [pM]
B1 | 50 | 1830 | 80 | 170 | 110 |  | 
B2 | 70 |  | 130 | 190 | 120 | 89500 | 
B3 | 1130 | > 200000 |  | 20800 |  |  | > 200000
B4 |  |  | 17800 |  |  | 210 | 15800
